Target: BKV serotype 1 VP1 (30-297) pentamer (BK polyomavirus)
Assay: AlphaScreen or HTRF

Binder	binding result
APQWMLPALLGLY [D1min L297A]	binds
APQWMLPLALGLY [D1min L298A]	binds
APQAMLPLLLGLY (N-terminal acetyl, C-terminal amide (Ac-APQAMLPLLLGLY-NH2, printed for the NMR samples)) [D1min W293A]	binds

From article doi:10.1101/720318 (bioRxiv, 2019)
